Source: PMC10397247
Where two headings read alike, the source gives them in different places. Each block holds one binder with its values, some of them ahead of it.

Columns and labels:
Assay in all cases: two-hybrid library CCmax;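 further: natural log of median RNA to DNA barcode read ratio; higher means stronger binding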
[1] = biological target: T1, 4H1626-AA
T1 chain: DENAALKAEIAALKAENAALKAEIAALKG

[2] = biological target: T2, 4H2162-AA; conditions: mean of both orientations
T2 chain: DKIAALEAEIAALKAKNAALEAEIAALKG

[3] = biological target: T3, 4H2504-AA; conditions: mean of both orientations
T3 chain: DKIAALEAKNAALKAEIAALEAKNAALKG

[4] = biological target: T4, 4H3001-AA; conditions: mean of both orientations
T4 chain: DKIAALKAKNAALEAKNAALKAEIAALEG

[5] = biological target: T5, 4H406-AA; conditions: mean of both orientations
T5 chain: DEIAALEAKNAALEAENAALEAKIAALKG

[6] = biological target: T6, 4H1597-AA; conditions: mean of both orientations
T6 chain: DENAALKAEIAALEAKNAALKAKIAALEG

[7] = biological target: T7, 4H2620-AA; conditions: mean of both orientations
T7 chain: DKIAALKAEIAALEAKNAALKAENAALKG

[8] = biological target: T8, 4H2648-AA; conditions: mean of both orientations
T8 chain: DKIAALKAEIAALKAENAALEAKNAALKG

[9] = biological target: T9, 4H3625-AA; conditions: mean of both orientations
T9 chain: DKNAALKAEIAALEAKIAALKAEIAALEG

[10] = biological target: T10, 4H43-AA; conditions: mean of both orientations
T10 chain: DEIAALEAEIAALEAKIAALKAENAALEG

[11] = biological target: T11, 4H454-AA; conditions: mean of both orientations
T11 chain: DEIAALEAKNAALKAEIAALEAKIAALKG

[12] = biological target: T12, 4H566-AA; conditions: mean of both orientations
T12 chain: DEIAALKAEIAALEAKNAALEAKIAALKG

[13] = biological target: T13, 4H605-AA; conditions: mean of both orientations
T13 chain: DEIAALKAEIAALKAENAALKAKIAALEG

[14] = biological target: T14, 4H794-AA; conditions: mean of both orientations
T14 chain: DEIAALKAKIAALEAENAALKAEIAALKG

[15] = biological target: T15, 4H906-AA; conditions: mean of both orientations
T15 chain: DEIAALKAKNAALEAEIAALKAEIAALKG

[16] = biological target: T16, 4H_APH4
T16 chain: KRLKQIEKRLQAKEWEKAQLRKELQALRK

[17] = biological target: T17, AP3-AA; conditions: mean of both orientations
T17 chain: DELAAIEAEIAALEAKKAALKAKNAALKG

[18] = biological target: T18, AP6-AA; conditions: mean of both orientations
T18 chain: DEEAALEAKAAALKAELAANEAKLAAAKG

[19] = biological target: T19, AP7-AA; conditions: mean of both orientations
T19 chain: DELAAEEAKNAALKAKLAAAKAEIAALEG

[20] = biological target: T20, P3-AA; conditions: mean of both orientations
T20 chain: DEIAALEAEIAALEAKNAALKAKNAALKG

[21] = biological target: T21, P4-AA; conditions: mean of both orientations
T21 chain: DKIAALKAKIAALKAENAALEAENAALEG

[22] = biological target: T22, P7-AA; conditions: mean of both orientations
T22 chain: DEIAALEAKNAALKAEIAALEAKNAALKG

[23] = biological target: T23, P8-AA; conditions: mean of both orientations
T23 chain: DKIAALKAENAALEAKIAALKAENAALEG

[24] = biological target: T24, P9-AA; conditions: mean of both orientations
T24 chain: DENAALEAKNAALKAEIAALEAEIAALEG

[25] = biological target: T25, 4H130-AA; conditions: mean of both orientations
T25 chain: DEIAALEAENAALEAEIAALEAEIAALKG

[26] = biological target: T26, 4H1349-AA; conditions: mean of both orientations
T26 chain: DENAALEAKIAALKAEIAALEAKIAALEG

[27] = biological target: T27, 4H1360-AA; conditions: mean of both orientations
T27 chain: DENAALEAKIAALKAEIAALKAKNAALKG

[28] = biological target: T28, 4H2580-AA; conditions: mean of both orientations
T28 chain: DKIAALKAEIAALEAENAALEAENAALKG

[29] = biological target: T29, 4H2699-AA; conditions: mean of both orientations
T29 chain: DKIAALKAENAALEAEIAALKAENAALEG

[30] = biological target: T30, 4H341-AA; conditions: mean of both orientations
T30 chain: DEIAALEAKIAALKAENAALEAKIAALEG

[31] = biological target: T31, 4H3595-AA
T31 chain: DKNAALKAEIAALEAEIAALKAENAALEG

[32] = biological target: T32, 4H483-AA; conditions: mean of both orientations
T32 chain: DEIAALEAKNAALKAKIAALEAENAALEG

[33] = biological target: T33, 4H568-AA; conditions: mean of both orientations
T33 chain: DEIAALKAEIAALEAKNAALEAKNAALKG

[34] = biological target: T34, 4H2343-AA; conditions: mean of both orientations
T34 chain: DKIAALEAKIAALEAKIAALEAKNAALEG

[35] = biological target: T35, 4H452-AA; conditions: mean of both orientations
T35 chain: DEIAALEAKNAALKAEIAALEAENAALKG

interaction score [1]: 1.63
interaction score [2]: -1.39
interaction score [3]: -1.49
interaction score [4]: -2.01
interaction score [5]: -1.8
Binder: DENAALKAEIAALKAENAALKAEIAALKG [4H1626-AA]

interaction score [11]: 1.23
interaction score [12]: -0.683
interaction score [13]: 0.159
interaction score [14]: -0.14
interaction score [15]: -1.72
interaction score [16]: -1.64
interaction score [17]: -1.06
interaction score [18]: -0.593
interaction score [19]: -1.35
interaction score [20]: -0.421
interaction score [21]: -0.573
interaction score [22]: 1.24
interaction score [23]: -0.645
interaction score [24]: -0.51
Binder: DKNAALKAEIAALEAENAALEAKIAALKG [4H3606-AA]

interaction score [7]: -1.86
interaction score [8]: -1.59
interaction score [33]: -1.18
Binder: DENAALKAKIAALEAKNAALEAKIAALEG [4H1845-AA]

interaction score [34]: -2.02
interaction score [4]: -1.42
interaction score [5]: -1.67
interaction score [35]: -1.74
Binder: DKIAALEAENAALKAEIAALKAKIAALEG [4H2253-AA]

The next lines start with the binder.

Binder: DENAALEAEIAALKAKNAALEAKIAALKG [4H1142-AA]
interaction score [6]: 0.572
interaction score ([1]; mean of both orientations): -0.818
interaction score [2]: 0.00334
interaction score [7]: -1.34
interaction score [8]: -0.52

Binder: DENAALEAKIAALKAEIAALEAKIAALKG [4H1350-AA]
interaction score [9]: 1.97
interaction score [10]: 2.09

Binder: DENAALEAKIAALKAKIAALKAEIAALEG [4H1385-AA]
interaction score [6]: -0.816
interaction score ([1]; mean of both orientations): -1.57
interaction score [2]: -1.63
interaction score [9]: 1.76
interaction score [10]: 1.97

Binder: DENAALEAEIAALEAKIAALEAKNAALKG [4H1064-AA]
interaction score [25]: -0.874
interaction score [26]: 0.539
interaction score [27]: 0.702
interaction score [28]: 1.19
interaction score [29]: -1.48
interaction score [30]: -1.26
interaction score [31]: 0.0501
interaction score [32]: -0.857
